Assays:
[1] = tested on: MS2 coat protein; assay: apparent KD of MS2 coat protein, switch OFF state (with FMN for OFF switches, without FMN for ON switches); designed switch direction (-1 OFF switch, 1 ON switch): 1; higher = weaker reporter binding; conditions: FMN input: 0 or 200 uM; Eterna round: R93 (includes R88 designs)
Method in brief: (§1)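 SNAP-549-labelled MS2 coat protein was titrated onto designed RNA switches that had been transcribed on-chip from Illumina sequencing clusters. Amounts doubled from 0.7 or 1.5 nM to 3 µM in 100 mM Tris-HCl pH 7.5, 80 mM KCl, 4 mM MgCl2, with constant ligand or without. Apparent KD is the median per design of normalised cluster binding-curve fits.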

[2] = tested on: MS2 coat protein; assay: apparent KD of MS2 coat protein, switch ON state; designed switch direction (-1 OFF switch, 1 ON switch): 1; higher = weaker reporter binding; conditions: FMN input: 0 or 200 uM; Eterna round: R93 (includes R88 designs)
Method in brief: as §1

| Sequence | apparent KD of MS2 coat protein [1] | apparent KD of MS2 coat protein [2] |
| --- | --- | --- |
| AGAAAUAAAAGAGAGGAUAUCUCAAAGAAAACAUGAGGAUCACCCAUGUAAAAGAAAAUAAAAUGGGAGAAGGCUCAUAAUAAAG [JL Skelter Mod 5 In the Red] | 133 nM | 54.3 nM |
| AGAAAUAAAGGAGAGGAUAUCCAAAAGAAAACAUGAGGAUCACCCAUGUAAAAGAAAAUAAAAUGGGAGAAGGCUUCAAAUAAGA [Starry modified V4] | 46.4 nM | 52.3 nM |
| AGAAAUAAAUGAGAGGAUAUCCAAAAGAAAACAUGAGGAUCACCCAUGUAAAAGAAAAUAAAAUGGGAGAAGGCUCAAAAUAAAG [80%, More Helter Skelter 2] | 58.5 nM | 23.5 nM |
| AGACAUAACAGAGAGGAUAUCCAAUAGAAAACAUGAGGAUCACCCAUGUGAAAGAUAAUAAAAUGGGAGAAGGCUCACAUACAGA [Topaz 40] | 30.4 nM | 19.5 nM |
| AGAGUAAACAGAGAGGAUAUCCAAUAGAAAACAUGAGGAUCACCCAUGUGAAAGAUAAUAAAAUGGGAGAAGGCUCACAAUAAGA [Topaz 43] | 49.4 nM | 24.6 nM |
| AGCAUGCGAUAUAAGGAUAUGUUGUUUGCAACAUGAGGAUCACCCAUGUUUGAGGCUGAAAAGCAGCAGAAGGUAUAUACAAGCA [SS2-1.0] | 13 nM | 9.45 nM |
| AGGAAACAUGAGGAUCACCCAUGUAAAAAAUAGGGAGGAUAUACUAGAAGAAACAAAAUAGUAGAAGGUCCAAAAA [75%, Ex sub1, 24] | 27.6 nM | 18.4 nM |
| AGGAAACAUGAGGAUCACCCAUGUAAAAAUAUGGGAGGAUAUACAAAGACGAAAGUCAAAGUAGAAGGCCUAAAAG [77%, Mat - Mod of Eli, 4] | 60.1 nM | 21.4 nM |
| AGGAAACAUGAGGAUCACCCAUGUAAAAAUAUGGGAGGAUAUACGAAGAAAAAAAAAAAAGUAGAAGGCCUAAAAG [Garnet 11] | 345 nM | 90.7 nM |
| AGGAAACAUGAGGAUCACCCAUGUAAAAAUAUGGGAGGAUAUACUAGAAGAAACAAAAUAGUAGAAGGCCUAAAAA [75%, Ex sub1, 26] | 47.4 nM | 17.4 nM |
| AGGAGACAUGAGGAUCACCCAUGUGAGAAGAGGCGAGGAUAUCGAAAGAAAGAAGAGAAACGAGAAGGCGCGAGGG [salish99-SS1-027] | 39.2 nM | 26.9 nM |
| AGGUAACAUGAGGAUCACCCAUGUACCGAUAAUGCAGGAUAUCGACACGAAAAUACGUGUCGAGAAGGGCAUGAAA [SS1 MT 23] | 13.5 nM | 14.3 nM |
| AUAAAAUAAAGUGAGGAUAUCUAUAAUAAAACAUGAGGAUCACCCAUGUUAAAAAAAAGAUCAUGGGAGAAGGCAUAAAAUAAAU [SS2 M 31] | 21.7 nM | 7.51 nM |
| AUAACACAUGAGGAUCACCCAUGUAGAAACAAGUCAGGAUAUCCGAUCCACAUGUGAAAAGGAGAAGGGACACUAA [SS 1 Tesla 6] | 146 nM | 37.4 nM |
| AUGAAAGUAACACAGGAUAUCCAGGAUACAACAUGAGGAUCACCCAUGUACAUACGAACGUAUAAGGAGAAGGGUGGAUGAUCUUC [ss2-2] | 59.3 nM | 50.7 nM |
| AUGAAGGAGAGAGAGGAUAUCCAAAGGGAAACAUGAGGAUCACCCAUGUAGAAGGUAGGAAAUUGGGAGAAGGCUCAAGAGAGAG [salish99-ss2-111] | 26.9 nM | 25.4 nM |
| CAGGACGUAGGAUAGGAUAUAUGAAUAAUUACAUGAGGAUCACCCAUGUCCAUUUAUAUGGGAACAUAGAAGGGUUGUGGUUAUG [Mat - Same state - Malcolm Mod - D144] | 315 nM | 680 nM |
| CAUAGACAUGAGGAUCACCCAUGUAGAAUUAUGGGAGGAUAUACAAAGACGAGAGUCAGAGUAGAAGGCCUAGGAA [salish99-ss1-160] | 38.6 nM | 20.2 nM |
| CAUCACGCGCCUAAGGAUAUGUCUCACAAGACAUGAGGAUCACCCAUGUAGACUAAAUAAACGAUGCAGAAGGUGGAGCGCAUGC [Usrexe] | 149 nM | 76.4 nM |

| Sequence | apparent KD of MS2 coat protein [1] | apparent KD of MS2 coat protein [2] |
| --- | --- | --- |
| CAUCAUGCGCCUAAGGAUAUGUCUCACAAGACAUGAGGAUCACCCAUGUAGAACAAAUAAGUGAUGCAGAAGGUGGAGCGCAUGC [Edcequed] | 137 nM | 18.9 nM |
| CGCGAACAUGAGGAUCACCCAUGUAAAUCGCAUGUAGGAUAUGGGAUACACAUUAAGAUCCCAGAAGGGCGGAAAA [Leeroner] | 23.5 nM | 23.8 nM |
| CGGAGACAUGAGGAUCACCCAUGUGAGAAGAGGCGAGGAUAUCGAAAAAAAAAAAAAAAACGAGAAGGCGCGAGAU [salish99-SS1-013] | 36.2 nM | 34 nM |
| CGGAGACAUGAGGAUCACCCAUGUGAGAAGAGGCGAGGAUAUCGAAAGAAAGAAGAGAAACGAGAAGGCGCGAGAA [salish99-SS1-065] | 32.8 nM | 20.4 nM |
| CGGAGACAUGAGGAUCACCCAUGUGAGAAGAGGCGAGGAUAUCGAAAGAAAGAAGAGAAAUGAGAAGGCGCGAGCC [salish99-SS1-081] | 39 nM | 36.2 nM |
| CGUAAACAUGAGGAUCACCCAUGUCAAUAUGAUCAAGGAUAUGGGUUCCGAAGUGGAACACCAGAAGGUGAAUAGU [Inrea] | 580 nM | 377 nM |
| CGUGAACAUGAGGAUCACCCAUGUGAAAAACAUAGAGGAUAUGUCGCGUGAGUGCAAAAGACAGAAGGCUAUCGUG [Mod 4 of Round 1 starryjess' Mod pf Nando] | 35.1 nM | 19.9 nM |
| GAAAAACAUGAGGAUCACCCAUGUAAAAAUAUGGGAGGAUAUACAAAGACGAAAGUCAAAGUAGAAGGCCUAAAAG [77%, Mat - Mod of Eli, 3] | 59.7 nM | 24.4 nM |
| GAAAAACAUGAGGAUCACCCAUGUAAGAUAAACACAGGAUAUGCGAAAAUAAAUAAAUAAGCAGAAGGGUGAAAAG [Mat - Same State 1 - Tesla mod - 78] | 37.4 nM | 25.7 nM |
| GAAAAACAUGAGGAUCACCCAUGUAGAAAUAUGGGAGGAUAUACAAAGACGAAAGUCAAAGUAGAAGGCCUAUAAG [Starry Same State 1.5 (mat747 round 1 mod)] | 33.3 nM | 17.7 nM |
| GAAAAACAUGAGGAUCACCCAUGUAGAAAUAUGGGAGGAUAUACAAAGACGAGAGUCAAAGUAGAAGGCCUAAAAG [Mat - Same State 1 - Eli mod - D9] | 86.7 nM | 28.4 nM |
| GAAAAACAUGAGGAUCACCCAUGUGAGAAUAUGGAAGGAUAUACAAAGACGAAAGUCAAAGUAGAAGGUCUAAAAG [Mat - Same State 1 - Eli mod - D15] | 20.5 nM | 28.9 nM |
| GAAAAACAUGAGGAUCACCCAUGUGUAAACAAGGGAGGAUAUACAAAGACGUAAGUCAAAGUAGAAGGCCUAAAAG [Garnet 38] | 47.1 nM | 25.6 nM |
| GAAAAACAUGAGGAUCACCCAUGUGUAAAUAUGGGAGGAUAUACAAAGACGGAAGUCAAAGUAGAAGGCCUAAAAG [Mat - Same State 1 - Eli mod - D11] | 111 nM | 94.3 nM |
| GACAAACAUGAGGAUCACCCAUGUAGACAUAUGGGAGGAUAUACACAGACGAAAGUCAAAGUAGAAGGCCUACAAG [77%, Mat - Mod of Eli - With 4 more C's] | 91.3 nM | 29.3 nM |
| GACAAACAUGAGGAUCACCCAUGUAGACAUAUGGGAGGAUAUACACAGACGAAAGUCACAGUAGAAGGCCUACAAG [77%, Mat - Mod of Eli - With 5 more C's] | 82.4 nM | 26.9 nM |
| GACAGACAUGAGGAUCACCCAUGUACAAACGUACAAGGAUAUGUGUGGAAACCGUACUAUACAGAAGGUGUAUGUC [SS1 - 91] | 80.5 nM | 42 nM |
| GACUGACAUGAGGAUCACCCAUGUAUUCAAACAUGAGGAUAUAUAACACGUCAUCGACGGAUAGAAGGCAUAGAUG [JR_SS001_Sub1209] | 162 nM | 117 nM |
| GACUGACAUGAGGAUCACCCAUGUAUUCGAGCAUGAGGAUAUAUGACACGUCAUCGACGGAUAGAAGGCAUGGAUG [JR_SS001_Sub1211] | 208 nM | 232 nM |

— the supplement of paper PMC9170038
